According to the supplement of paper PMC10567573:

Experiment: protein stability index of a GFP-peptide fusion (GPS, HEK-293T) (PSI 1-6); higher = more stable
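Also: lentivirally expressed fusions sorted by FACS into six bins by GFP to DsRed ratio, PSI derived from sequencing read proportions per bin multiplied by bin number.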

FNYSVGFKDLNESLNALEDQDLDA
protein stability index (parent: IOH27581_8, c terminus: a fixed tail appended): 4.47

RALEEVEMKLQKNFLTQRENTIAG
protein stability index (parent: IOH27431_29, c terminus: a fixed tail appended): 3.73

KLLSVIVWMLMLLLAVPNIILTNQ
protein stability index (parent: IOH27142_24, c terminus: a fixed tail appended): 3.1

KQTIGNSCKACGYRGMLDTHHKLC [EIF5 WT]
protein stability index (parent: IOH27132_20, c terminus: a fixed tail appended): 3.1

ITYPPGVKEISDKISKEEMVRRLK
protein stability index (parent: IOH27247_3, c terminus: a fixed tail appended): 3.62

QPPEMIGPMRPEQFSDEVEPATPE
protein stability index (parent: IOH27258_4, c terminus: a fixed tail appended): 5.04

SAIYKWITDNFCYFRHADPTWQNS [FOXJ1 WT]
protein stability index (parent: IOH27374_25, c terminus: a fixed tail appended): 2.69

FWNIKQMWDTKTLGLRQHHCRKCG
protein stability index (parent: IOH27506_50, c terminus: a fixed tail appended): 2.1

MLWVQRKRRRKETSECPSDKDKSP
protein stability index (parent: IOH27431_1, c terminus: a fixed tail appended): 2.93

FQRAMHDYNQAEMKQRDNCKIRIQ [STX11 WT]
protein stability index (parent: IOH27407_24, c terminus: a fixed tail appended): 2.68

PPEPLSQVSMWDQRWQDHQPLLPI
protein stability index (parent: IOH27581_25, c terminus: a fixed tail appended): 3.15

ADPVLDLPLPPPPPEPLSQVSMWD
protein stability index (parent: IOH27581_23, c terminus: a fixed tail appended): 4.59

KKIFKSHLKSSRNSTSVKKKSSRN
protein stability index (parent: IOH27142_36, c terminus: a fixed tail appended): 3.96

YHSPELTTPPGHGTLDNSKSMKPY [NEUROD6 WT]
protein stability index (parent: IOH27687_36, c terminus: a fixed tail appended): 2.22

FVSIAQSEQESLLQQAQAQFRMAQ
protein stability index (parent: IOH27102_133, c terminus: a fixed tail appended): 2.09

IYKKYALQSAAGKDAAKQIAWIKD
protein stability index (parent: IOH27247_70, c terminus: a fixed tail appended): 2.16

TNPDLIIVCAQSSQSLWNRLSVLL
protein stability index (parent: IOH27102_112, c terminus: a fixed tail appended): 2.77

TSECPSDKDKSPESHKAKNESWIK
protein stability index (parent: IOH27431_3, c terminus: a fixed tail appended): 3.1

QEKLQVLMAEGLLPAVKVFLDWLR
protein stability index (parent: IOH27102_108, c terminus: a fixed tail appended): 2.44

LLIPKEDGVITASEDRTIRVWLKR
protein stability index (parent: IOH27506_6, c terminus: a fixed tail appended): 2.04

SQVSMWDQRWQDHQPLLPITDVP
protein stability index (parent: IOH27581_27, c terminus: native): 2.45

LNAELEEKMMQEAEKLKAQGEYSR [CCDC89 WT]
protein stability index (parent: IOH27358_17, c terminus: a fixed tail appended): 4.98

TVHEVDIFRCFCPVFLHSQMLWEL [FAM116A WT]
protein stability index (parent: IOH27644_45, c terminus: a fixed tail appended): 3

LPLPPPPPEPLSQVSMWDQRWQDH
protein stability index (parent: IOH27581_24, c terminus: a fixed tail appended): 3.74

TFGDHHKDRRFAYGRSDVVVLCFS [RHOBTB1 WT]
protein stability index (parent: IOH27118_15, c terminus: a fixed tail appended): 1.99

GHSHHSHHGHPSHQSHSLPNRRH
protein stability index (parent: IOH27431_35, c terminus: native): 2.57

RPRRYVQPPEMIGPMRPEQFSDEV
protein stability index (parent: IOH27258_3, c terminus: a fixed tail appended): 3.67
